Results on 13 molecules are retold here after patent US20240294611A1 (University of Texas, published 2024).

Values joined by “and” are separate entries in the source; they are usually repeats but may differ in a detail not shown here. Equal values may be shown once. Read-outs that look alike come from different tables or passages of the source.

Test [1] has as its target T1, SARS-CoV-2 HexaPro S2 (isolated S2 domain) (SARS-CoV-2, UniProt P0DTC2 697-1208).
T1 construct: range 697-1208
The test can be described thus: BLI; column head says Fab Kd, footnote says immobilized IgG.

For test [2], the target named is T2, aglycosylated HexaPro (HexaPro treated with Endo H) (SARS-CoV-2, UniProt P0DTC2 14-1208). Briefly: BLI equilibrium, IgG on anti-Fc sensor.
Test [3] concerns the target T1, SARS-CoV-2 HexaPro S2 (isolated S2 …). Briefly: BLI equilibrium, IgG on anti-Fc tips.
Test [4] has as its target T2, aglycosylated HexaPro (HexaPro treated …). The test can be described thus: BLI equilibrium, IgG on anti-Fc tips.
The target of test [5] is soluble SARS-CoV-2 spike protein variant 4PDS (SARS-CoV-2, UniProt P0DTC2 14-1208).
A further test deals with HexaPro E1031R (SARS-CoV-2, UniProt P0DTC2 14-1208).
Test [6] has as its target T3, SARS-CoV-2 D614G spike without stabilizing modifications (on cells or pseudovirus) (SARS-CoV-2, UniProt P0DTC2 14-1273). The test can be described thus: cell-based or functional assay.
For test [7], the target named is T4, wild-type SARS-CoV-2 spike without stabilizing modifications (on cells or pseudovirus) (SARS-CoV-2, UniProt P0DTC2 14-1273). Briefly: cell-based or functional assay.
The target of test [8] is SARS-CoV-2 B.1.1.7 (variant Alpha) spike on pseudovirus (SARS-CoV-2, UniProt P0DTC2 14-1273). The test can be described thus: cell-based or functional assay.
For test [9], the target named is T3, SARS-CoV-2 D614G spike without …. The test can be described thus: cell-based or functional assay. The source holds these as a separate data set.
Test [10] concerns the target T4, wild-type SARS-CoV-2 spike without …. The test can be described thus: cell-based or functional assay. This is another data set of the same source.
In test [11] the target is T1, SARS-CoV-2 HexaPro S2 (isolated S2 …).
For test [12] the target is unchanged. This is another data set of the same source.
Test [13] shares this target. The source holds these as a separate data set.
Test [14] has the same target. This is another data set of the same source.
For test [15] the target is unchanged. The source holds these as a separate data set.

B1: 4A5 full-length antibody (mouse variable region-human IgG1 constant region chimera) (antibody, V domains shown)
VH: QVQLQQSGAELAKPGASVKMSCKASGYTFTSYWMHWVKQRPGQGLEWVGMIDPSNSETRLNQKFKDKATLNVDKSSNTAYMQLSSLTSEDSAVYYCARLGRYWGQGTTLTVSS
VL: DIVMTQSHKFMSTSVGDRVSITCKASQNVGANVAWYQQKPGQSPKALIYSASYRYSGVPDRFTGSGSGTDFTLTISNVQSEDLAEYFCQQYNSYPYTSGGGTKLEIKR
Consider B1, for which the Kd came to 11 nM in [1], 10 nM in test [2], 11 nM in test [3] and 10 nM in test [4].

B2: combination of AM3A3-5 heavy chain with unmodified hu3A3 (WT; ven3A3) light chain (antibody, V domains shown)
VH: QVQLVQSGAEVLKPGASVKLSCKASGFNIKDTYIHWLKQAPGQRLEWIGRIGPAIGNTIYAPKFQGKATITTDTSASTAYLELSSLRSEDTAVYYCARYYGYAYYYFDYWGQGTTVTVSS
VL: DIVMTQSPLSVPVTPGEPVSISCRSSKSLLHSNGNTYLYWFLQKPGQSPQLLIYRMSNLASGVPDRFSGSGSGTAFTLKISRVEAEDVGVYYCMQYLEYPLTFGAGTKLEIK
Regarding B2, the “Fold improvement over WT/WT” value in test [5] stood at 0.5 fold.

B3: combination of AM3A3-3 heavy chain with AM3A3-5 light chain (antibody, V domains shown)
VH: QVQLVQSGADVLKPGASVKLSCKASGFNIKNTYIHWLKQAPGQRLEWIGRIGPAIGNTIYAPKFQGKATITTDTSASTAYLELSSLRSEDTAVYYCARYYGSSYYYLDYWGQGTTVTVSS
VL: DIVMTQSPLSVPVTPGEPVSISCRSSKSLLHSNGNTYLYWFLQKPGQSPQLLIARMSTLASGVPDRFSGSGSGTAFTLKISRVEAEDVGVYYCMQYLEYPLTFGAGTKLEIK
Turning to B3, the “Fold improvement over WT/WT” value in test [5] was determined as 95.6 fold.

B4: combination of AM3A3-3 heavy chain with unmodified hu3A3 (WT; ven3A3) light chain (antibody, V domains shown)
VH: QVQLVQSGADVLKPGASVKLSCKASGFNIKNTYIHWLKQAPGQRLEWIGRIGPAIGNTIYAPKFQGKATITTDTSASTAYLELSSLRSEDTAVYYCARYYGSSYYYLDYWGQGTTVTVSS
VL: DIVMTQSPLSVPVTPGEPVSISCRSSKSLLHSNGNTYLYWFLQKPGQSPQLLIYRMSNLASGVPDRFSGSGSGTAFTLKISRVEAEDVGVYYCMQYLEYPLTFGAGTKLEIK
As to B4, the “Fold improvement over WT/WT” value in test [5] was 11.6 fold.

B5: AM3A3-3 (affinity matured humanized 3A3) (antibody, V domains shown)
VH: QVQLVQSGADVLKPGASVKLSCKASGFNIKNTYIHWLKQAPGQRLEWIGRIGPAIGNTIYAPKFQGKATITTDTSASTAYLELSSLRSEDTAVYYCARYYGSSYYYLDYWGQGTTVTVSS
VL: DIVMTQSPLSVPVTPGEPVSISCRSSKSLHHSNGNTYLYWFLQKPGQSPQLLIYRMSNLASGVPDRFSGSGNGTAFTLKISRVEAEDVGVYYCMQYLEYPLTFDAGTKLEIK
Take B5: the “Fold improvement over WT/WT” value in test [5] was 63.3 fold.

B6: combination of unmodified hu3A3 (WT; ven3A3) heavy chain with AM3A3-5 light chain (antibody, V domains shown)
VH: QVQLVQSGAEVLKPGASVKLSCKASGFNIKDTYIHWLKQAPGQRLEWIGRIGPAIGNTIYAPKFQGKATITTDTSASTAYLELSSLRSEDTAVYYCARYYGSSYYYFDYWGQGTTVTVSS
VL: DIVMTQSPLSVPVTPGEPVSISCRSSKSLLHSNGNTYLYWFLQKPGQSPQLLIARMSTLASGVPDRFSGSGSGTAFTLKISRVEAEDVGVYYCMQYLEYPLTFGAGTKLEIK
As to B6, the “Fold improvement over WT/WT” value in test [5] amounted to 63.7 fold.

B7: AM3A3-5 (affinity matured humanized 3A3) (antibody, V domains shown)
VH: QVQLVQSGAEVLKPGASVKLSCKASGFNIKDTYIHWLKQAPGQRLEWIGRIGPAIGNTIYAPKFQGKATITTDTSASTAYLELSSLRSEDTAVYYCARYYGYAYYYFDYWGQGTTVTVSS
VL: DIVMTQSPLSVPVTPGEPVSISCRSSKSLLHSNGNTYLYWFLQKPGQSPQLLIARMSTLASGVPDRFSGSGSGTAFTLKISRVEAEDVGVYYCMQYLEYPLTFGAGTKLEIK
Regarding B7, in [5], the “Fold improvement over WT/WT” value was determined as 50.5 fold.

B8: combination of unmodified hu3A3 (WT; ven3A3) heavy chain with AM3A3-3 light chain (antibody, V domains shown)
VH: QVQLVQSGAEVLKPGASVKLSCKASGFNIKDTYIHWLKQAPGQRLEWIGRIGPAIGNTIYAPKFQGKATITTDTSASTAYLELSSLRSEDTAVYYCARYYGSSYYYFDYWGQGTTVTVSS
VL: DIVMTQSPLSVPVTPGEPVSISCRSSKSLHHSNGNTYLYWFLQKPGQSPQLLIYRMSNLASGVPDRFSGSGNGTAFTLKISRVEAEDVGVYYCMQYLEYPLTFDAGTKLEIK
Take B8: the “Fold improvement over WT/WT” value in test [5] was found to be 13.7 fold.

B9: humanized 3A3 with ven3A3VH and ven3A3VL (antibody, V domains shown)
VH: QVQLVQSGAEVLKPGASVKLSCKASGFNIKDTYIHWLKQAPGQRLEWIGRIGPAIGNTIYAPKFQGKATITTDTSASTAYLELSSLRSEDTAVYYCARYYGSSYYYFDYWGQGTTVTVSS
VL: DIVMTQSPLSVPVTPGEPVSISCRSSKSLLHSNGNTYLYWFLQKPGQSPQLLIYRMSNLASGVPDRFSGSGSGTAFTLKISRVEAEDVGVYYCMQYLEYPLTFGAGTKLEIK
In the case of B9, the “Fold improvement over WT/WT” value in test [5] worked out at 1 fold.

B10: combination of AM3A3-5 heavy chain with AM3A3-3 light chain (antibody, V domains shown)
VH: QVQLVQSGAEVLKPGASVKLSCKASGFNIKDTYIHWLKQAPGQRLEWIGRIGPAIGNTIYAPKFQGKATITTDTSASTAYLELSSLRSEDTAVYYCARYYGYAYYYFDYWGQGTTVTVSS
VL: DIVMTQSPLSVPVTPGEPVSISCRSSKSLHHSNGNTYLYWFLQKPGQSPQLLIYRMSNLASGVPDRFSGSGNGTAFTLKISRVEAEDVGVYYCMQYLEYPLTFDAGTKLEIK
Regarding B10, the “Fold improvement over WT/WT” value in [5] was 4.3 fold.

B11: 4H2 full-length antibody (mouse variable region-human IgG1 constant region chimera) (antibody, V domains shown)
VH: EVQVVESGGGLVQPGGSRKLSCAASGFTFSSYGMSWVRQTPDKRLEWVATISSGGSYTYYPDSVKGRFTISRDNAKNNLYLQMSSLKSEDTAMYYCARDGYGNYVGMDYWGQGTSVTVSS
VL: DIVLTQSPAIMSASPGEKVTITCSASSSVSYMHWFQQKPGTSPKLWIYSTSNLASGVPARFSGSGSGTSYSLTISSMEAEDAATYYCQQWSSNSYTFGGGTKLEIKR
Take B11: the Kd in test [1] was found to be 63 nM; in test [2], 9 nM; in [3] it was 63 nM; in test [4], 9 nM.

B12: 3A3 full-length antibody (mouse variable region-human IgG1 constant region chimera) (antibody, V domains shown)
VH: QVQLQQSGAELLKPGASVKLSCTASGFNIKDTYIHWLKQRPEQGLEWIGRIGPAIGNTIYAPKFQGKATITTDTSSNTAYLQLSSLTSEDTAVYYCARYYGSSYYYFDYWGQGTTLTVSS
VL: DIVMTQSAPSVPVTPGESVSISCRSSKSLLHSNGNTYLYWFLQRPGQSPQLLIYRMSNLASGVPDRFSGSGSGTAFTLRISRVEAEDVGVYYCMQYLEYPLTFGAGTKLELKR
On to B12, for which the Kd in test [2] was determined as 8.4 nM; in the test with HexaPro E1031R, 1.5 nM; in [4], 7.9 nM. The kon in the test with HexaPro E1031R is 2.88e+06 M⁻¹ s⁻¹. Further, the entries for the “Pseudovirus IC50” value in [6], in [7] and in [8] were 94 nM, 212 nM and 119 nM, respectively. Further, the “IC50 of pseudovirus entry (FIG. 3A)” value was found to be 2.05 µg/mL in test [9] and 25.6 µg/mL in test [10]. The “IC50 of pseudovirus infection (FIG. 3A)” value in test [9] is about 14 nM; in test [10], about 173 nM.

B13: 3A3 Fab (mouse Fab fragment) (Fab, V domains shown)
VH: QVQLQQSGAELLKPGASVKLSCTASGFNIKDTYIHWLKQRPEQGLEWIGRIGPAIGNTIYAPKFQGKATITTDTSSNTAYLQLSSLTSEDTAVYYCARYYGSSYYYFDYWGQGTTLTVSS
VL: DIVMTQSAPSVPVTPGESVSISCRSSKSLLHSNGNTYLYWFLQRPGQSPQLLIYRMSNLASGVPDRFSGSGSGTAFTLRISRVEAEDVGVYYCMQYLEYPLTFGAGTKLELKR
Consider B13, for which the Kd in test [11] is 3.2 nM; in test [12] it was 3.6 nM; in test [13], 2.2 nM; in test [14], about 2.5 nM; in test [15], 2.2 nM and 3.2 nM. The koff is 0.0046 s⁻¹ in [12], 0.0049 s⁻¹ in test [13] and 0.005 s⁻¹ in test [14]. The kon is 1.3e+06 M⁻¹ s⁻¹ in test [12], 2.3e+06 M⁻¹ s⁻¹ in test [13] and about 2e+06 M⁻¹ s⁻¹ in test [14].
